{"source": "paper PMC3418449", "key": {"[1]": {"target": "T1, GRK2 (S670A), flow cytometry and crystallography (bovine, UniProt P21146 1-689, S670A)", "T1 sequence (P21146 whole entry S670A)": "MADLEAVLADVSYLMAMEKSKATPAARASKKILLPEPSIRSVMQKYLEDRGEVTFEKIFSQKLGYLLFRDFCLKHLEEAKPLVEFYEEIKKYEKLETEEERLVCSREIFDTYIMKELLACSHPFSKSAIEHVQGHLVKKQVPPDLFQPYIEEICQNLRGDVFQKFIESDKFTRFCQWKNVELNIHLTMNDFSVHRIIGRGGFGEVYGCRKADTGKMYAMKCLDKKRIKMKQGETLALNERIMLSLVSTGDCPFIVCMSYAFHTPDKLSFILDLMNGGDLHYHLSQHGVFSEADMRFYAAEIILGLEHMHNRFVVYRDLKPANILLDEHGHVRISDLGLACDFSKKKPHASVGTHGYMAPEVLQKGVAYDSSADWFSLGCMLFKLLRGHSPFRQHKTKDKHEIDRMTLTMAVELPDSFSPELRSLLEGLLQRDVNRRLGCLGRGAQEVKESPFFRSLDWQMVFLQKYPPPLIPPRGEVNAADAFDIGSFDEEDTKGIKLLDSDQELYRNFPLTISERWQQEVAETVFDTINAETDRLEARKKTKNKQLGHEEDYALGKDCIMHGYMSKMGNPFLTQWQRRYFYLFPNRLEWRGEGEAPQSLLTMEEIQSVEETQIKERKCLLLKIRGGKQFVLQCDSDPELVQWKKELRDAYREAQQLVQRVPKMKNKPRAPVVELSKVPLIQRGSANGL", "experiment": "competition"}, "[2]": {"target": "T1, GRK2 (S670A), flow cytometry and …", "experiment": "competition", "remark": "listed apart in the source"}, "[3]": {"target": "T1, GRK2 (S670A), flow cytometry and …", "experiment": "flow cytometry bead binding"}, "[4]": {"target": "GRK2-D335A, flow cytometry (UniProt P21146 1-689, D335A)", "sequence (P21146 whole entry D335A)": "as the sequence (P21146 whole entry S670A) above, with D335A, A670S counted along it", "experiment": "flow cytometry bead binding"}, "[5]": {"target": "GRK2-H280A, flow cytometry (UniProt P21146 1-689, H280A)", "sequence (P21146 whole entry H280A)": "as the sequence (P21146 whole entry S670A) above, with H280A, A670S counted along it", "experiment": "flow cytometry bead binding"}, "[6]": {"target": "T1, GRK2 (S670A), flow cytometry and …", "experiment": "competition", "remark": "listed apart in the source"}, "[7]": {"target": "GRK6 palmitoylation-deficient (human, UniProt P43250 1-576, C561S;C562S;C565S)", "sequence (P43250 whole entry C561S/C562S/C565S)": "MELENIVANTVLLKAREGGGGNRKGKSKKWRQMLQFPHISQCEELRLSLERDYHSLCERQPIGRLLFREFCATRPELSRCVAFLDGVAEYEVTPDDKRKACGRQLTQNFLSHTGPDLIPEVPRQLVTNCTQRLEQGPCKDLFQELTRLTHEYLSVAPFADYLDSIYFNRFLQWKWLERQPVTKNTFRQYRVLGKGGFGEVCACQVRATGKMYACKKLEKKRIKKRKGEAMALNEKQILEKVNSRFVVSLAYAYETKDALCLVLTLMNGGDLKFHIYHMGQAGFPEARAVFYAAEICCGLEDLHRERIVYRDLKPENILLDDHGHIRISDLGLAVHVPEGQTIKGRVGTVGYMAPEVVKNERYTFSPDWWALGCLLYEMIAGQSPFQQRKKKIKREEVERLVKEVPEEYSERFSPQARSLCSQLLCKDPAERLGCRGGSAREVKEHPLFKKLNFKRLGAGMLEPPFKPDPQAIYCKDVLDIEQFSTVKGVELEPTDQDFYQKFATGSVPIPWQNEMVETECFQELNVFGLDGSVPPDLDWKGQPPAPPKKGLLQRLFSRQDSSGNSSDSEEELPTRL", "experiment": "competition"}, "[8]": {"target": "T1, GRK2 (S670A), flow cytometry and …", "experiment": "competition", "remark": "listed apart in the source"}, "[9]": {"target": "GRK2-FG-6A, flow cytometry (UniProt P21146 1-689, R392A;H394A;K395A;K397A;K399A;H400A)", "sequence (P21146 whole entry R392A/H394A/K395A/K397A/K399A/H400A)": "as the sequence (P21146 whole entry S670A) above, with R392A, H394A, K395A, K397A, K399A, H400A, A670S counted along it", "experiment": "competition"}, "[10]": {"target": "T2, GRK1 truncated at residue 535 (bovine, UniProt P28327 1-535)", "T2 sequence": "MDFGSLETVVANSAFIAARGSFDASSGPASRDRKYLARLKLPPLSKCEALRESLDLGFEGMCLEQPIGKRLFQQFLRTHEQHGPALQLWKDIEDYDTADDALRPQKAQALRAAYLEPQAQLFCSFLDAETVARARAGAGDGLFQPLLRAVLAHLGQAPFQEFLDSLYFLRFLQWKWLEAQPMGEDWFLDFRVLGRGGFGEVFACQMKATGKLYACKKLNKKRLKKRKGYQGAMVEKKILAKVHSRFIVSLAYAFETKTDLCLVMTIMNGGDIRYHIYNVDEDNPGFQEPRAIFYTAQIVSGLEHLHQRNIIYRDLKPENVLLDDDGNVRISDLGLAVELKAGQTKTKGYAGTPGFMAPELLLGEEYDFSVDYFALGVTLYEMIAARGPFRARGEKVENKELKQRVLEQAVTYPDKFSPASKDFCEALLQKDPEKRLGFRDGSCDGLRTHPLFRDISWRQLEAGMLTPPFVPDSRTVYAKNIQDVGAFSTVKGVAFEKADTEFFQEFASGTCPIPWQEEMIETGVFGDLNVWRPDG", "experiment": "competition"}, "[11]": {"target": "T1, GRK2 (S670A), flow cytometry and …", "experiment": "flow cytometry bead binding", "remark": "listed apart in the source"}, "[12]": {"target": "T1, GRK2 (S670A), flow cytometry and …", "experiment": "flow cytometry bead binding", "remark": "listed apart in the source"}}, "note": "Read-outs that look alike come from different tables or passages of the source.", "data": [{"binder": "GGGUAGCACAGACCAUACGGGAGAGAAACUUGUGCAACCC (structured_RNA)", "note": "[C13.40]", "values": [{"measurement": "IC50", "setting": "[1]", "value": "1.3 ± 0.1", "unit": "nM"}]}, {"binder": "GGCAGACCAUCCGGGAGAGAAACUUGCC (structured_RNA)", "note": "[C13.28A51C]", "values": [{"measurement": "binding result", "setting": "[2]", "value": "no binding"}]}, {"binder": "GGCAGACCAUACGGGAGAGAAACUUGCC (ssRNA)", "note": "[C13.28]", "values": [{"measurement": "Kd", "setting": "[3]", "value": "3.8 ± 1.2", "unit": "nM"}, {"measurement": "binding result", "setting": "[4]", "value": "binds"}, {"measurement": "binding result", "setting": "[5]", "value": "binds"}, {"measurement": "IC50", "setting": "[6]", "value": "0.44 ± 0.19", "unit": "nM"}, {"measurement": "IC50", "setting": "[7]", "value": "210 ± 10", "unit": "nM"}, {"measurement": "IC50", "setting": "[8]", "value": "3.3 ± 0.3", "unit": "nM"}, {"measurement": "IC50", "setting": "[9]", "value": "510 ± 170", "unit": "nM"}, {"measurement": "IC50", "setting": "[10]", "value": "590 ± 160", "unit": "nM"}, {"measurement": "Kd", "setting": "[11]", "value": "1.2 ± 0.6", "unit": "nM"}, {"measurement": "IC50", "setting": "[1]", "value": "1.5 ± 0.1", "unit": "nM"}]}, {"binder": "AGACCAUACGGGAGAGAAACUU (structured_RNA)", "note": "[C13.22]", "values": [{"measurement": "IC50", "setting": "[1]", "value": "46 ± 9", "unit": "nM"}]}, {"binder": "CCAUACGGGAGAGAAACU (ssRNA)", "note": "[C13.18]", "values": [{"measurement": "IC50", "setting": "[6]", "value": "100 ± 41", "unit": "nM"}, {"measurement": "Kd", "setting": "[12]", "value": "35 ± 5", "unit": "nM"}]}, {"binder": "GGGCAGACCAUACGGGAGAGAAACUUGCC (structured_RNA)", "note": "[C13.29]", "values": [{"measurement": "IC50", "setting": "[1]", "value": "0.91 ± 0.07", "unit": "nM"}]}, {"binder": "GGCGACCAUACGGGAGAGAAACUGCC (structured_RNA)", "note": "[C13.26]", "values": [{"measurement": "IC50", "setting": "[1]", "value": "0.9 ± 0.03", "unit": "nM"}]}]}
